Laboratory results as given in patent publication WO2018134389A1 (dated 2018).

Tests used:
[1] = molecular target: T1, Recombinant HIV-1 IIIB gp120 derived from CHO cells (ImmunoDx) (HIV-1 IIIB, UniProt P04578 33-511); assay: flow cytometry on HEK293T point-mutant transfectants
T1 construct: also called HIV-1 IIIB gpl20; HIV-1 gp120

[2] = molecular target: T1, Recombinant HIV-1 IIIB gp120 derived …; assay: lectin-functionalized plate, labelled glycoprotein, fluorescence read-out

Row | Binder | binding result [1] | binding result [2]
1 | DC-SIGN CRD single point mutant S360A, stably expressed on HEK293T cells (receptor, whole, on cells) MSDSKEPRLQQLGLLEEEQLRGLGFRQTRGYKSLAGCLGHGPLVLQLLSFTLLAGLLVQVSKVPSSISQEQSRQDAIYQNLTQLKAAVGELSEKSKLQEIYQELTQLKAAVGELPEKSKLQEIYQELTRLKAAVGELPEKSKLQEIYQELTWLKAAVGELPEKSKMQEIYQELTRLKAAVGELPEKSKQQEIYQELTRLKAAVGELPEKSKQQEIYQELTRLKAAVGELPEKSKQQEIYQELTQLKAAVERLCHPCPWEWTFFQGNCYFMSNSQRNWHDSITACKEVGAQLVVIKSAEEQNFLQLQSSRSNRFTWMGLSDLNQEGTWQWVDGSPLLPSFKQYWNRGEPNNVGEEDCAEFAGNGWNDDKCNLAKFWICKKSAASCSRDEEQFLSPAPATPNPPPA | binds | –
2 | DC-SIGN CRD single point mutant D367A, stably expressed on HEK293T cells (receptor, whole, on cells) MSDSKEPRLQQLGLLEEEQLRGLGFRQTRGYKSLAGCLGHGPLVLQLLSFTLLAGLLVQVSKVPSSISQEQSRQDAIYQNLTQLKAAVGELSEKSKLQEIYQELTQLKAAVGELPEKSKLQEIYQELTRLKAAVGELPEKSKLQEIYQELTWLKAAVGELPEKSKMQEIYQELTRLKAAVGELPEKSKQQEIYQELTRLKAAVGELPEKSKQQEIYQELTRLKAAVGELPEKSKQQEIYQELTQLKAAVERLCHPCPWEWTFFQGNCYFMSNSQRNWHDSITACKEVGAQLVVIKSAEEQNFLQLQSSRSNRFTWMGLSDLNQEGTWQWVDGSPLLPSFKQYWNRGEPNNVGEEDCAEFSGNGWNDAKCNLAKFWICKKSAASCSRDEEQFLSPAPATPNPPPA | binds | –
3 | DC-SIGN CRD single point mutant V351A, stably expressed on HEK293T cells (receptor, whole, on cells) MSDSKEPRLQQLGLLEEEQLRGLGFRQTRGYKSLAGCLGHGPLVLQLLSFTLLAGLLVQVSKVPSSISQEQSRQDAIYQNLTQLKAAVGELSEKSKLQEIYQELTQLKAAVGELPEKSKLQEIYQELTRLKAAVGELPEKSKLQEIYQELTWLKAAVGELPEKSKMQEIYQELTRLKAAVGELPEKSKQQEIYQELTRLKAAVGELPEKSKQQEIYQELTRLKAAVGELPEKSKQQEIYQELTQLKAAVERLCHPCPWEWTFFQGNCYFMSNSQRNWHDSITACKEVGAQLVVIKSAEEQNFLQLQSSRSNRFTWMGLSDLNQEGTWQWVDGSPLLPSFKQYWNRGEPNNAGEEDCAEFSGNGWNDDKCNLAKFWICKKSAASCSRDEEQFLSPAPATPNPPPA | binds | –
4 | Sambucus Nigra Agglutinin (other, also called SNA) VTPPVYPSVSFNLTGADTYEPFLRALQEKVILGNHTAFDLPVLNPESQVSDSNRFVLVPLTNPSGDTVTLAIDVVNLYVVAFSSNGKSYFFSGSTAVQRDNLFVDTTQEELNFTGNYTSLERQVGFGRVYIPLGPKSLDQAISSLRTYTLTAGDTKPLARGLLVVIQMVSEAARFRYIELRIRTSITDASEFTPDLLMLSMENNWSSMSSEIQQAQPGGIFAGVVQLRDERNNSIEVTNFRRLFELTYIAVLLYGCAPVTSSSYSNNAIDAQIIKMPVFRGGEYEKVCSVVEVTRRISGWDGLCVDVRYGHYIDGNPVQLRPCGNECNQLWTFRTDGTIRWLGKCLTASSSVMIYDCNTVPPEATKWVVSIDGTITNPHSGLVLTAPQAAEGTALSLENNIHAARQGWTVGDVEPLVTFIVGYKQMCLRENGENNFVWLEDCVLNRVQQEWALYGDGTIRVNSNRSLCVTSEDHEPSDLIVILKCEGSGNQRWVFNTNGTISNPNAKLLMDVAQRDVSLRKIILYRPTGNPNQQWITTTHPA | – | no binding (tested: 10, 2 and 0.4 μg/ml)
